Consider 1 protein from paper doi:10.1101/2020.08.06.226779 (bioRxiv, 2020).

What is called stoichiometry N is a count of units in the complex or per binding partner.

This data set deals with the molecule itself. The data set is described as follows: SEC-MALS. (In general: In gel filtration, larger molecules generally elute earlier.)

B1: recombinant BCAS0292 (natural protein)
chain: MSGVRCDGLAIVDAVTLLSAYPDASRDADAPTVIDGRHIYVLRPGDAGQVGHNDNRLFAGLSPGDQLHLRETALALRAEVTVLFIRFALKDAGIVAPIEAEIRDAATPVPDGDDLLHPSCRPMKDHFWRSEVLAPGITTCTADFAVLDRDGAVSGYFRWETAIEIAGSRPDTKQPGVEP
With B1, the “stoichiometry N” value was 2.
